Test results reported in IntAct's records for PubMed 30245403.

Target: T1, prdx2_human PRDX2 (UniProt P32119)
T1 sequence: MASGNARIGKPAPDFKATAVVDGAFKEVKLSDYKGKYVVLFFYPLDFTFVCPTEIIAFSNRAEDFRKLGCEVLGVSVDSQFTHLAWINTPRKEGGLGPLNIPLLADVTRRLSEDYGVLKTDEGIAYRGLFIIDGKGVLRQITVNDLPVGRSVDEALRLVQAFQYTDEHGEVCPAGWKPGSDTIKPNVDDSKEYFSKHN

Substance | effect of a mutation on the interaction
"DNA (cytosine-5)-methyltransferase 3A" (Homo sapiens) (from UniProt Q9Y6K1) R882C | with no effect
"DNA (cytosine-5)-methyltransferase 3A" (Homo sapiens) (from UniProt Q9Y6K1) R882H | increasing interaction strength
